Experiment [1] concerns the target T1, BimLΔC27-L94A (mouse, UniProt O54918-2 1-113).
T1 construct: also called Bim containing the L94 mutation; L94A mutant
T1 sequence: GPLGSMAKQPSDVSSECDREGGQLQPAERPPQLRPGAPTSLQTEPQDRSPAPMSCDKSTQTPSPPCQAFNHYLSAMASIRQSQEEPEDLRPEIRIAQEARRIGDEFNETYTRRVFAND
Description: SPR (BIAcore 2000), BimLΔC27-L94A immobilised; Bcl-w truncated by 29 residues (Bcl-wΔC29). The method, then:
(§1) Similar results were obtained when a corresponding mutation (L138A) was introduced into another BH3-only protein, Bmf (not shown).
(§2) Analysis of protein interactions by surface plasmon resonance was carried out on a BIAcore 2000 biosensor (BIAcore). For the immobilisation to BIAcore CM 5 sensorchips (BIAcore), wild-type or mutant Bim proteins were buffer exchanged into 20 mM Na-acetate, pH 4.5. N-hydroxysuccinimide coupling and binding analysis was done as described previously (Lackmann et al., 1997). In order to minimise mass-transport mediated effects the kinetic experiments were routinely carried out at 20 μl/min. Bcl-w binding at concentrations between 2 and 0.03 μM in running buffer (10 mM HEPES, pH 7.4, 150 mM NaCl, 3.4 mM EDTA, 0.005% Tween 20) was performed on sensorchip surfaces derivatised on parallel channels with a non-relevant protein, BimLΔC27 and BimLΔC27-L94A. The binding kinetics were derived from the sensorgrams following subtraction of baseline responses (measured on the control channel) by ‘global analysis’ using the BIA Evaluation software (vers. 3.02, BIAcore).
A general note: SPR reads the build-up and loss of mass on a sensor chip optically.

The target of experiment [2] is T2, BimLΔC27 (mouse, UniProt O54918-2 1-113).
T2 construct: Truncation by 27 C-terminal residues is stated, the end residue is not; Numbering (L94) is that of the BimL isoform, not of the canonical BimEL entry; Immobilised on the CM5 chip in SPR; soluble protein in GST pull-downs; also called C-terminally truncated BimL; wt BimLΔC27
T2 sequence: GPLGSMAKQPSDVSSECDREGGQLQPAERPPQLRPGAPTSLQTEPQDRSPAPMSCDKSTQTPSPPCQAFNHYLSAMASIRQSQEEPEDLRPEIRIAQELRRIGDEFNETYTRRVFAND
In words: SPR (BIAcore 2000), BimLΔC27 immobilised. The method, then: as §1, §2

The target of experiment [3] is T2, BimLΔC27. In words: SPR (BIAcore 2000), global fit to a 1:1 Langmuir model. Sheet heads Bcl-w 'Immobilized' and Bim 'Analyte'; text says Bim immobilised, Bcl-w in solution. The method, then:
(§3) FIG. 3A is a table showing the binding constants for various Bcl-w-BH3-only ligand complexes, which were determined using Biosensor experiments as described herein. FIG. 3B is a graphical representation showing the interaction kinetics of Bcl-w binding to BimLΔC27. Samples of serially diluted Bcl-w (2 μM-62.5 nM) were analysed on a BimLΔC27 sensor surface as described in Experimental Procedures. […] FIG. 3C is a graphical representation showing the interaction kinetics of Bcl-w or Bcl-wΔC29 binding to BimLΔC27 or BimLΔC27-L94A. […] Relative responses of samples between 1 μM and 62.5 nM are shown. FIG. 3D is a photographic representation of a GST pull-down assay to assess the binding capacity of Bcl-w proteins. Approximately equivalent amounts of the indicated GST-Bcl-w proteins were mixed with either soluble wt BimLΔC27 or soluble BimLΔC27-L94A. The intensity of the Bim band indicated the amount of protein that bound to Bcl-w. Molecular weight standards in kDa are indicated.
as §2, with “3.02, BIAcore). The surface of the chip was regenerated with 50 mM 1,2-diethylamine containing 0.1% Triton X100, followed by two washes with running buffer.” for “3.02, BIAcore).”

Experiment [4] has as its target T1, BimLΔC27-L94A. The description is as above. The method, then: as §3
as §2, with “3.02, BIAcore). The surface of the chip was regenerated with 50 mM 1,2-diethylamine containing 0.1% Triton X100, followed by two washes with running buffer.” for “3.02, BIAcore).”

The target in a further experiment is T3, Bim (UniProt O54918-2 1-140, limits assumed).
T3 construct: also called BH3-only protein Bim
T3 sequence (looked up): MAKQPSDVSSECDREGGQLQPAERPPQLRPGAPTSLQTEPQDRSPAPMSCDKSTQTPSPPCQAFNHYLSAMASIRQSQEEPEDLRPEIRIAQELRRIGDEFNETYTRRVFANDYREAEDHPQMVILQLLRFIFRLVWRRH
In words: not described.

The target in experiment [5] is T4, FLAG Bcl-xL (full-length) (UniProt Q07817 1-233).
T4 construct: also called FLAG-tagged full-length Bcl-xL; not shown: FLAG tag
Description: co-immunoprecipitation from 35S-labelled 293T lysates with anti-FLAG (α-F), anti-EE (α-E) and control anti-HA (α-H) [upper right gel]. The source says:
FIG. 4 comprises photographic representations showing that the in vivo and in vitro binding properties of Bcl-xL resemble that of Bcl-w. FIG. 4A is a photographic representation showing that the C-terminus of Bcl-w restricts access to the binding groove in vivo. Equivalent ³⁵S-labeled 293T lysates obtained from cells co-expressing FLAG Bcl-w or Bcl-wΔC29, and EE-BimEL or BimEL-L150A, were immunoprecipitated using the anti-FLAG M2 (α-F), anti-EE (α-E) or control anti-HA (α-H) monoclonal antibodies. The immunoprecipitations were fractionated on SDS-PAGE gels. FIG. 4B is a photographic representation showing that the C-terminus of Bcl-xL restricts access to the binding groove in vivo. Co-precipitation experiments similar to those described in FIG. 4A using lysates from cells co-expressing FLAG Bcl-xL or Bcl-xLΔC24, and EE-BimL or BimL-L94A. […]
Cell culture, stable transfections into FDC-P1, transient transfections into 293T human embryonic kidney cells, metabolic labelling with ³⁵S-methionine/cysteine (NEN) and co-immunoprecipitation have been previously described (O'Connor et al., 1998, Moriishi et al., 1999; Huang et al., 1998; Wilson-Annan et al., 2003). […] The immunoprecipitates were resolved by SDS-PAGE (Novex), transferred onto nitrocellulose membranes (APB) and the proteins detected by fluorography (Amplify; APB).

The target in another experiment is T5, Bim-BH3 peptide (mouse).
T5 peptide: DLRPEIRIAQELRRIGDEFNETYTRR
In words: NMR, 15N-NOESY-HSQC chemical shift changes.

Experiment [6] concerns the target T1, BimLΔC27-L94A. In words: SPR (BIAcore 2000). The method, then: as §1, §2
Experiment [7] concerns the target T1, BimLΔC27-L94A. In words: SPR (BIAcore 2000), BimLΔC27-L94A immobilised, Bcl-w in solution; full-length Bcl-w. The method, then:
as §1, §2

For experiment [8], the target named is T2, BimLΔC27. Description: SPR (BIAcore 2000), BimLΔC27 immobilised, Bcl-w in solution, global 1:1 Langmuir fit. The method, then:
as §1, §2

T4 sequence (Q07817 whole entry): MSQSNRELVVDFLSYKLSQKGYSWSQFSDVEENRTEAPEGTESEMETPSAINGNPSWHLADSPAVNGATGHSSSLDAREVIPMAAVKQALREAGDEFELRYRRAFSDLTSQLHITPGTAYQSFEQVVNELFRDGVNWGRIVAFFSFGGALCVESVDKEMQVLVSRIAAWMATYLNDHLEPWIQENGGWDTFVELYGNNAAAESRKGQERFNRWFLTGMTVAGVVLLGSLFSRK

B1: Bcl-wΔC29 (purified recombinant protein) (other)
chain: GPLGSMATPASAPDTRALVADFVGYKLRQKGYVCGAGPGEGPAADPLHQAMRAAGDEFETRFRRTFSDLAAQLHVTPGSAQQRFTQVSDELFQGGPNWGRLVAFFVFGAALCAESVNKEMEPLVGQVQEWMVAYLETRLADWIHSSGGWAEFTALYGDGALEEARRLRE
notes: Residue limits 1-164 follow from 193 aa minus 29; also called Bcl-w truncated by 29 residues at the C-terminus
As for B1, the Kd with BimLΔC27-L94A [1] is 0.013 µM; with BimLΔC27 [2], 0.011 µM. For the same molecule, in the experiment with BimLΔC27 [2], the “fold increase in the association rate against full-length Bcl-w” value was 3 fold. Besides, the koff with BimLΔC27 [3] was 0.0061 s⁻¹; with BimLΔC27-L94A [4], 0.0028 s⁻¹. Moreover, the kon is 570000 M⁻¹ s⁻¹ with BimLΔC27 [3] and 210000 M⁻¹ s⁻¹ with BimLΔC27-L94A [4].

B2: Bcl-w with Arg95 mutated to Ala (other)
chain: MATPASAPDTRALVADFVGYKLRQKGYVCGAGPGEGPAADPLHQAMRAAGDEFETRFRRTFSDLAAQLHVTPGSAQQRFTQVSDELFQGGPNWGALVAFFVFGAALCAESVNKEMEPLVGQVQEWMVAYLETRLADWIHSSGGWAEFTALYGDGALEEARRLREGNWASVRTVLTGAVALGALVTVGAFFASK
notes: Construct and assay not described; also called Bcl-w R95A
In the case of B2, in the experiment with Bim, the binding result is given as “no binding”.

B3: EE-BimL-L94A (ligand, UniProt O54918-2 1-140, looked up)
chain: MAKQPSDVSSECDREGGQLQPAERPPQLRPGAPTSLQTEPQDRSPAPMSCDKSTQTPSPPCQAFNHYLSAMASIRQSQEEPEDLRPEIRIAQEARRIGDEFNETYTRRVFANDYREAEDHPQMVILQLLRFIFRLVWRRH
notes: also called L94A mutant; not shown: EE (Glu-Glu) tag
Turning to B3, the binding result in experiment [5] is recorded as “no binding”.

B4: Bcl-wΔC10 (A128E), purified, NMR sample (other)
chain: GPLGSMATPASAPDTRALVADFVGYKLRQKGYVCGAGPGEGPAADPLHQAMRAAGDEFETRFRRTFSDLAAQLHVTPGSAQQRFTQVSDELFQGGPNWGRLVAFFVFGAALCAESVNKEMEPLVGQVQEWMVEYLETRLADWIHSSGGWAEFTALYGDGALEEARRLREGNWASVRTVLTGAVALGAL
notes: Isotope-labelled (15N) protein for the NOESY-HSQC with the Bim-BH3 peptide
B4: the binding result with Bim-BH3 peptide is on record as “binds”.

B5: Bcl-w (full-length, purified recombinant protein) (other)
chain: GPLGSMATPASAPDTRALVADFVGYKLRQKGYVCGAGPGEGPAADPLHQAMRAAGDEFETRFRRTFSDLAAQLHVTPGSAQQRFTQVSDELFQGGPNWGRLVAFFVFGAALCAESVNKEMEPLVGQVQEWMVAYLETRLADWIHSSGGWAEFTALYGDGALEEARRLREGNWASVRTVLTGAVALGALVTVGAFFASK
notes: Expressed as GST fusion in E. coli, released with PreScission protease; analyte in solution in the BIAcore experiments; also called full length Bcl-w; wild-type Bcl-w
Consider B5, for which, in the experiment with BimLΔC27-L94A [6], the “fold decrease in the association rate against BimLΔC27” value stood at 10 fold, the “fold increase in the dissociation rate against BimLΔC27” value is 5 fold and the “fold reduction of affinity against BimLΔC27” value was greater than 60 fold. The Kd with BimLΔC27-L94A [7] came out at 1.6 µM. Also, in the experiment with BimLΔC27 [3], the koff is 0.0043 s⁻¹ and the kon stood at 180000 M⁻¹ s⁻¹. In the experiment with BimLΔC27-L94A [4], this molecule showed a koff of 0.02 s⁻¹ and a kon of 13000 M⁻¹ s⁻¹. This molecule also showed a Kd with BimLΔC27 [8] of 0.024 µM.

The term Kd denotes the free concentration of one partner at which half of the binding sites on the other are occupied at equilibrium, for simple one-to-one binding. As a reminder, the koff is a measure of how fast the partners let go of each other. Higher therefore signals fast dissociation. As a reminder, the kon is the second-order rate constant of association.

The values are drawn from US20070054846A1, “Bcl-w structure and uses therefor” (priority 2002, published 2007).
